Assay results as given in US20140072613A1, “Compositions and Methods for Treating Cutaneous Scarring” (priority 2012, published 2014).

Key:
Assay in all cases: biochemical
Format in all cases: biochemical
266 human kinases [1] = molecular target: 266 human kinases (Homo sapiens, UniProt P08581, Y1230D); conditions: Met(Y1248D)(h); 100 μM
Excerpt: (§1) Specifically, in these assays, a positively charged substrate is phosphorylated with a radiolabeled phosphate group from an ATP if the kinase is not inhibited by an inhibitor peptide. The positively charged substrate then is attracted to a negatively charged filter membrane, quantified with a scintillation counter, and compared to a 100% activity control.

266 human kinases [2] = molecular target: 266 human kinases (Homo sapiens, UniProt P22607); conditions: FGFR3(h); 100 μM
Excerpt: as §1

266 human kinases [3] = molecular target: 266 human kinases (Homo sapiens, UniProt P05771); conditions: PKCβI(h); 100 μM
Excerpt: as §1

266 human kinases [4] = molecular target: 266 human kinases (Homo sapiens, UniProt P31751); conditions: PKBβ(h); 100 μM
Excerpt: as §1

266 human kinases [5] = molecular target: 266 human kinases (Homo sapiens, UniProt P15735); conditions: PhKγ2(h); 100 μM
Excerpt: as §1

266 human kinases [6] = molecular target: 266 human kinases (Homo sapiens, UniProt Q02763); conditions: Tie2(h); 100 μM
Excerpt: as §1

266 human kinases [7] = molecular target: 266 human kinases (Homo sapiens, UniProt O96017, R145W); conditions: CHK2(R145W)(h); 100 μM
Excerpt: as §1

266 human kinases [8] = molecular target: 266 human kinases (Homo sapiens, UniProt Q96GD4); conditions: Aurora-B(h); 100 μM
Excerpt: as §1

266 human kinases [9] = molecular target: T1, 266 human kinases (Homo sapiens, UniProt Q8TF76); conditions: Haspin(h); 100 μM
T1 sequence (Q8TF76 1-798): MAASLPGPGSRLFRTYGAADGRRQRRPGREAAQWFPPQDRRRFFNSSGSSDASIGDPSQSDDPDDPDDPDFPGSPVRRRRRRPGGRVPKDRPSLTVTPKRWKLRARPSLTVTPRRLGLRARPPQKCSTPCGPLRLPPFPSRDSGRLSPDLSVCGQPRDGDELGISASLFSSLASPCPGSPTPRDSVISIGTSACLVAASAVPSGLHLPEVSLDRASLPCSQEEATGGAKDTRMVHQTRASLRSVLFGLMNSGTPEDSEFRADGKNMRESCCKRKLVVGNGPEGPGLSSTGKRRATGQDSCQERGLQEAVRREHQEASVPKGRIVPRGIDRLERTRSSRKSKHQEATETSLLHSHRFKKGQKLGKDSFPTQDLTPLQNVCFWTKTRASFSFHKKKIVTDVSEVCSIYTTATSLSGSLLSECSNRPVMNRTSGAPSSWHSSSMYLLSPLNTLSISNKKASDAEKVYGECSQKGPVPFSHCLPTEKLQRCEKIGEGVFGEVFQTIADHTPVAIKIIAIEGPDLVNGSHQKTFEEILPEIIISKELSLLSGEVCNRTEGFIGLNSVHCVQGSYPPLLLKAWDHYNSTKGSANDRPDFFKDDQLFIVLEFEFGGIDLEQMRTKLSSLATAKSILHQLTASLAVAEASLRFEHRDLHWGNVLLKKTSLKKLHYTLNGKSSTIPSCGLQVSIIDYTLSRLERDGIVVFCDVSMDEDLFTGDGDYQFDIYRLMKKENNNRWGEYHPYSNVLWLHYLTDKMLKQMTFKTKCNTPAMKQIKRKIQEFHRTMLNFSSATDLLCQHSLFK
Excerpt: as §1

266 human kinases [10] = molecular target: 266 human kinases (Homo sapiens, UniProt Q96RG2); conditions: PASK(h); 100 μM
Excerpt: as §1

266 human kinases [11] = molecular target: 266 human kinases (Homo sapiens, UniProt Q9BYT3); conditions: STK33(h); 100 μM
Excerpt: as §1

266 human kinases [12] = molecular target: 266 human kinases (Homo sapiens, UniProt P22455); conditions: FGFR4(h); 100 μM
Excerpt: as §1

266 human kinases [13] = molecular target: T2, 266 human kinases (Homo sapiens, UniProt Q8NG66); conditions: NEK11(h); 100 μM
T2 sequence (Q8NG66 1-645): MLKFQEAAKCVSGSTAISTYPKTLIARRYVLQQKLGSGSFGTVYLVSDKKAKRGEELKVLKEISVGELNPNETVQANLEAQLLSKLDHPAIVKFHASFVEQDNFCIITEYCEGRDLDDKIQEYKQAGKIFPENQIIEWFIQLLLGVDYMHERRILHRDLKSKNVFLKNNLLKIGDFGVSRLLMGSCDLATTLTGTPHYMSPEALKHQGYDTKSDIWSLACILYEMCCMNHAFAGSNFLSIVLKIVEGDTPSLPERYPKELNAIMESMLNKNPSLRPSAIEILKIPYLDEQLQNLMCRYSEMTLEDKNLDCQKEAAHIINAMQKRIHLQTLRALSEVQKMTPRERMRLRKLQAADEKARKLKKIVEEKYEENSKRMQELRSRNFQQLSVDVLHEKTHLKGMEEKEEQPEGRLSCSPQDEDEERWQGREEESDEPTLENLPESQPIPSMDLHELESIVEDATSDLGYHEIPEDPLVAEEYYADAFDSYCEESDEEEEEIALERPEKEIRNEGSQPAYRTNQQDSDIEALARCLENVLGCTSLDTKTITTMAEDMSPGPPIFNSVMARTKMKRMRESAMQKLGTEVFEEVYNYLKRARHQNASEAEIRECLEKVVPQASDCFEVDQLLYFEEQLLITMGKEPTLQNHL
Excerpt: as §1

266 human kinases [14] = molecular target: T3, 266 human kinases (Homo sapiens, UniProt Q96PF2); conditions: TSSK2(h); 100 μM
T3 sequence (Q96PF2 1-358): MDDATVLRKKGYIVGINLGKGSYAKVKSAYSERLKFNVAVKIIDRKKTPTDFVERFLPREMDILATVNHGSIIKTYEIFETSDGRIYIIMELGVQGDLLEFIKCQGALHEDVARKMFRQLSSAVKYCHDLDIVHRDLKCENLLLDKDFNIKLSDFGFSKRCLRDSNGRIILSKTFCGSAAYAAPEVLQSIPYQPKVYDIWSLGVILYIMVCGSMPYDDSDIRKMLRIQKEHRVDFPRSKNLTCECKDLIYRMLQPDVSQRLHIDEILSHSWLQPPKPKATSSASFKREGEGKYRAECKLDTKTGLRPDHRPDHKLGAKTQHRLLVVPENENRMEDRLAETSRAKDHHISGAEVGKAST
Excerpt: as §1

Sequence of 266 human kinases (Homo sapiens, UniProt Q96RG2) (Q96RG2 whole entry): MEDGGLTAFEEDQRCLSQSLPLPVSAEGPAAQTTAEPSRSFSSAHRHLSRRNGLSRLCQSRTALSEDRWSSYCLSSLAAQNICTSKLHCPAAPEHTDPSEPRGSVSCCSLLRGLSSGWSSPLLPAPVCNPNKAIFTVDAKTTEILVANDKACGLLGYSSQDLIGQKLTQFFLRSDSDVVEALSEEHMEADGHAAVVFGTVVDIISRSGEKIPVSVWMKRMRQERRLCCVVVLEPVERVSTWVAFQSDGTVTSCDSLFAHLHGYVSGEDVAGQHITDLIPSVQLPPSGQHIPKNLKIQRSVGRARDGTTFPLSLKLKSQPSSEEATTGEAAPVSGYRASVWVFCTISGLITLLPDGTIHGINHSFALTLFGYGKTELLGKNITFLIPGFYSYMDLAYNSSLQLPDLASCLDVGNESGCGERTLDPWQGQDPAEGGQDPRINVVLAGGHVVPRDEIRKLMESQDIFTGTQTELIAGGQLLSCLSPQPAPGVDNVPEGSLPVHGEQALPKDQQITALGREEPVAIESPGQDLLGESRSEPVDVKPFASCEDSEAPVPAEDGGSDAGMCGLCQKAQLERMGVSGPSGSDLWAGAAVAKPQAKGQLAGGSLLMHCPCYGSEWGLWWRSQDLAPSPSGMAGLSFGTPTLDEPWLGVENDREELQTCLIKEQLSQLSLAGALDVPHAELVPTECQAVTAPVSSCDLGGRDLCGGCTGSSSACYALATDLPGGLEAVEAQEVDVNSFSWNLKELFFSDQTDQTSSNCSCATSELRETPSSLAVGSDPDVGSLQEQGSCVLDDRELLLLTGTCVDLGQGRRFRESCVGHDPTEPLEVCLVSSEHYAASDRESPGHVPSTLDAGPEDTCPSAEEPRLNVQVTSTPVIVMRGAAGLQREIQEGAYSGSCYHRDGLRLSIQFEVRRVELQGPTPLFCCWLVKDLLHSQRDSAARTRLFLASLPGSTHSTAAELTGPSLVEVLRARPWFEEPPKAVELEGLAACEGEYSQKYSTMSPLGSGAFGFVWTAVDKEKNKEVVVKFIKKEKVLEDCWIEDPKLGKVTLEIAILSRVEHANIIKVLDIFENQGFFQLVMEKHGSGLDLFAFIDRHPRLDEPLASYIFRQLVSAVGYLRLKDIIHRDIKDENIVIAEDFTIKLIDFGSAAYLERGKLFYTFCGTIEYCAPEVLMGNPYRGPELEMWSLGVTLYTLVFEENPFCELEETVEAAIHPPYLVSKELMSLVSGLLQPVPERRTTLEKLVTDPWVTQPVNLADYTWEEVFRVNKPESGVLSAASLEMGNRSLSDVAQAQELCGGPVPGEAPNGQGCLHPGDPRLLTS
Sequence of 266 human kinases (Homo sapiens, UniProt Q9BYT3) (Q9BYT3 whole entry): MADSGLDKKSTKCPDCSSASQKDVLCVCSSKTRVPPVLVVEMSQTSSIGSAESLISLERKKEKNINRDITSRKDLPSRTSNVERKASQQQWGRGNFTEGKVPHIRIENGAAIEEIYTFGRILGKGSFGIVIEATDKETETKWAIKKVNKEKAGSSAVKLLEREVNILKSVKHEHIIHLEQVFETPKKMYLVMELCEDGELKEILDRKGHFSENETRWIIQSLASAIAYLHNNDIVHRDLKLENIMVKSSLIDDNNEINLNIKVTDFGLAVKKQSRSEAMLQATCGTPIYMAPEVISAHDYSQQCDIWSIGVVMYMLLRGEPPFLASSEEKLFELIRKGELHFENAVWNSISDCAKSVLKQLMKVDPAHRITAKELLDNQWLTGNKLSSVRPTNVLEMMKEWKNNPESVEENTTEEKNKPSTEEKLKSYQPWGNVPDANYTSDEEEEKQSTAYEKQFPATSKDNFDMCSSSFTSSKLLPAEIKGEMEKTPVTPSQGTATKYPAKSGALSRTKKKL
Sequence of 266 human kinases (Homo sapiens, UniProt P31751) (P31751 whole entry): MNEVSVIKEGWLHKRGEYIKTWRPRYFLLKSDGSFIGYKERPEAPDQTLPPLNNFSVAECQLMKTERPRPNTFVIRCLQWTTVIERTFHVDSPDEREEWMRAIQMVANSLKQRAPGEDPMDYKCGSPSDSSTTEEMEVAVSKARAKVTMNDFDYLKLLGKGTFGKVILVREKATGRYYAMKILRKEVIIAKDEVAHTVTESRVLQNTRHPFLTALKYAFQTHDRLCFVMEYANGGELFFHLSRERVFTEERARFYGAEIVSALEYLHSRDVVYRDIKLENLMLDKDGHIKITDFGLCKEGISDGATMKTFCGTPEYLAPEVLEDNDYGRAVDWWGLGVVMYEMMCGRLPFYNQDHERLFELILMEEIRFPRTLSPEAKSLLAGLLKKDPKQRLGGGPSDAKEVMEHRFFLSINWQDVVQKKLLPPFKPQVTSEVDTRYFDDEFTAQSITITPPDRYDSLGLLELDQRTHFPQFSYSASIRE
Sequence of 266 human kinases (Homo sapiens, UniProt O96017, R145W) (O96017 whole entry R145W): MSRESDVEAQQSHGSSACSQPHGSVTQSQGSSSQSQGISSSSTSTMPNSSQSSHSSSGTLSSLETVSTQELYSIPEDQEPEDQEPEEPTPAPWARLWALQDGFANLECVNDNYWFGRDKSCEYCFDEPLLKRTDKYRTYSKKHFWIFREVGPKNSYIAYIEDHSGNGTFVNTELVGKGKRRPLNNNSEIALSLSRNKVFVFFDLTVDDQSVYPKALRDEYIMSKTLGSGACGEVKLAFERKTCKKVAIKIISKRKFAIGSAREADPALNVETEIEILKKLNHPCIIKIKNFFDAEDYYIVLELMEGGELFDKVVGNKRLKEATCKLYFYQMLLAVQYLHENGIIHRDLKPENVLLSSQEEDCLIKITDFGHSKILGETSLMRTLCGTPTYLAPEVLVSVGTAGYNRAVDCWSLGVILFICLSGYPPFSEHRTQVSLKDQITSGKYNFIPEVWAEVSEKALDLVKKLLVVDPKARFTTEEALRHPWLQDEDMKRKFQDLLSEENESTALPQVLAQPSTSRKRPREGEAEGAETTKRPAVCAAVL
Sequence of 266 human kinases (Homo sapiens, UniProt Q96GD4) (Q96GD4 whole entry): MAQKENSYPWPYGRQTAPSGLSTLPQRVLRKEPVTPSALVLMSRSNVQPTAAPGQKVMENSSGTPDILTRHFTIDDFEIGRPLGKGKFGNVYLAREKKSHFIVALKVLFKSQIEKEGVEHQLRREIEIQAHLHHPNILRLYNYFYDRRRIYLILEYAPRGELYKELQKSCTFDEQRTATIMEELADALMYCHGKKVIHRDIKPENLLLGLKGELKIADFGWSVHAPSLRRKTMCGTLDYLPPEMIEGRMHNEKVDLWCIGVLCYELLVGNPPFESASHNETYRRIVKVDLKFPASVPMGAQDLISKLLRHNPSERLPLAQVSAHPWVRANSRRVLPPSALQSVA
Sequence of 266 human kinases (Homo sapiens, UniProt P05771) (P05771 whole entry): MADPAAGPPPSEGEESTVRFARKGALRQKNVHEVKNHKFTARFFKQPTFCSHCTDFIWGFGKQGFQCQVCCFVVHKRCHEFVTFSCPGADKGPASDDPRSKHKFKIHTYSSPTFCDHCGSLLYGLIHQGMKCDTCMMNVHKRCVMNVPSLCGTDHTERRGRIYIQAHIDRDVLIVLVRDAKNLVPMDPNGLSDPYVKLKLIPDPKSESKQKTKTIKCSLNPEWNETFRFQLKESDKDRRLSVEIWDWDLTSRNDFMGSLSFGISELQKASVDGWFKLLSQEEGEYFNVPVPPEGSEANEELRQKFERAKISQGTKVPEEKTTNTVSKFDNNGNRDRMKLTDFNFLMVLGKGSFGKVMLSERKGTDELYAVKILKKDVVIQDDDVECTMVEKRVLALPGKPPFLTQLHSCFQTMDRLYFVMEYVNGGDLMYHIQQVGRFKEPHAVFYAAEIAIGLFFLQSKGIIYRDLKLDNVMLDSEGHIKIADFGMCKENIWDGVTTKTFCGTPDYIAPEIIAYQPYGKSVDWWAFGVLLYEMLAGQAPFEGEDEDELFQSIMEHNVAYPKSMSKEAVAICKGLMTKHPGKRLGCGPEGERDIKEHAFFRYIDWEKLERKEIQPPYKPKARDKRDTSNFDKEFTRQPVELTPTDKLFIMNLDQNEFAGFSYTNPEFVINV
Sequence of 266 human kinases (Homo sapiens, UniProt P15735) (P15735 whole entry): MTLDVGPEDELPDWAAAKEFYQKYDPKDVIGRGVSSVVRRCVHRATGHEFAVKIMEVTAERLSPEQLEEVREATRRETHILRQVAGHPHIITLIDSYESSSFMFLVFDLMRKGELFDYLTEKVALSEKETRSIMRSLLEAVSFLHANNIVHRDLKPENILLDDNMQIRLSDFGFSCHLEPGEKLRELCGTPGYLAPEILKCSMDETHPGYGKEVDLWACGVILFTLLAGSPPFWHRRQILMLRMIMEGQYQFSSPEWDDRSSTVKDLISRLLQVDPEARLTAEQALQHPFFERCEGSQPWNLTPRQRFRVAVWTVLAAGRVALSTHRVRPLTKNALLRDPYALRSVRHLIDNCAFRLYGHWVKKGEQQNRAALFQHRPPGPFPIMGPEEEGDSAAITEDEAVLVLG

Sequence	% activity (266 human kinases [1])	% activity (266 human kinases [2])	% activity (266 human kinases [3])	% activity (266 human kinases [4])	% activity (266 human kinases [5])	% activity (266 human kinases [6])	% activity (266 human kinases [7])	% activity (266 human kinases [8])	% activity (266 human kinases [9])	% activity (266 human kinases [10])	% activity (266 human kinases [11])	% activity (266 human kinases [12])	% activity (266 human kinases [13])	% activity (266 human kinases [14])
HRRIKAWLKKIKALARQLGVAA (mammal) [MMI-0500]	218%	10%	1%	21%	16%	22%	3%	5%	25%	9%	16%	3%	2%	92%
YARAAARQARAKALNRQLGVA (mammal) [MMI-0200]	118%	208%	98%	250%	86%	53%	81%	166%	71%	60%	98%	75%	95%	91%
